According to patent publication US20240026037A1 (Memorial Sloan Kettering, published 2024):

B1: G3A_chimeric (antibody, V domains shown)
VH: EVKLVESGGGLVKPGGSLKLSCAASGFAFSTYDMSWVRQTPEKRLEWVATISSGGSYTYYLDSVKGRFTISRDSARNTLYLQMSSLRSEDTALYYCAPTTVVPFAYWGQGTLVTVSA
VL: DIVMTQSQKFMSTSVGDRVSITCKASQNVRTVVAWYQQKPGQSPKTLIYLASNRHTGVPDRFTGSGSGTDFTLTISNVQSEDLADYFCLQHWSYPLTFGSGTKLEVK
B2: G3A_VK6+VH2 (antibody, V domains shown)
VH: EVQLVESGGGLVKPGGSLRLSCAASGFAFSTYDMSWVRQAPGKGLEWVATISSGGSYTYYLDSVKGRFTISRDSAKNSLYLQMNSLRAEDTAVYYCAPTTVVPFAYWGQGTLVTVSA
VL: DIQMTQSPSSLSASVGDRVTITCKASQNVRTVVAWYQQKPGKAPKRLIYLASNRHTGVPSRFSGSGSGTEFTLTISNLQPEDFATYFCLQHWSYPLTFGSGTKLEVK
B3: G3A_VK3+VH1 (antibody, IgG1, V domains shown)
VH: EVQLVESGGGLVKPGGSLRLSCAASGFAFSTYDMSWVRQAPGKGLEWVSTISSGGSYTYYADSVKGRFTISRDNAKNSLYLQMNSLRAEDTAVYYCAPTTVVPFAYWGQGTLVTVSA
VL: DIQMTQSPSSLSTSVGDRVTITCKASQNVRTVVAWYQQKPGKAPKTLIYLASNRHSGVPSRFSGSGSGTEFTLTISNLQPEDFATYYCLQHWSYPLTFGSGTKLEVK
B4: G3A_VK5+VH3 (antibody, V domains shown)
VH: EVQLVESGGGLVKPGGSLRLSCAASGFAFSTYDMSWVRQAPGKGLEWVATISSGGSYTYYADSVKGRFTISRDSAKNSLYLQMNSLRAEDTAVYYCAPTTVVPFAYWGQGTLVTVSA
VL: DIQMTQSPSSLSASVGDRVTITCKASQNVRTVVAWYQQKPGKAPKTLIYLASNRHTGVPSRFSGSGSGTEFTLTISNLQPEDFATYYCLQHWSYPLTFGSGTKLEVK
B5: G3A_VK7+VH3 (antibody, V domains shown)
VH: EVQLVESGGGLVKPGGSLRLSCAASGFAFSTYDMSWVRQAPGKGLEWVATISSGGSYTYYADSVKGRFTISRDSAKNSLYLQMNSLRAEDTAVYYCAPTTVVPFAYWGQGTLVTVSA
VL: DIQMTQSPSSLSASVGDRVTITCKASQNVRTVVAWYQQKPGKAPKRLIYLASNRHTGVPSRFSGSGSGTEFTLTISNVQPEDFATYYCLQHWSYPLTFGSGTKLEVK
B6: G3A_VK5+VH1 (antibody, V domains shown)
VH: EVQLVESGGGLVKPGGSLRLSCAASGFAFSTYDMSWVRQAPGKGLEWVSTISSGGSYTYYADSVKGRFTISRDNAKNSLYLQMNSLRAEDTAVYYCAPTTVVPFAYWGQGTLVTVSA
VL: DIQMTQSPSSLSASVGDRVTITCKASQNVRTVVAWYQQKPGKAPKTLIYLASNRHTGVPSRFSGSGSGTEFTLTISNLQPEDFATYYCLQHWSYPLTFGSGTKLEVK
B7: G3A_VK4+VH3 (antibody, IgG1, V domains shown)
VH: EVQLVESGGGLVKPGGSLRLSCAASGFAFSTYDMSWVRQAPGKGLEWVATISSGGSYTYYADSVKGRFTISRDSAKNSLYLQMNSLRAEDTAVYYCAPTTVVPFAYWGQGTLVTVSA
VL: DIQMTQSPSSLSASVGDRVTITCKASQNVRTVVAWYQQKPGKAPKTLIYLASNRHTGVPSRFSGSGSGTEFTLTISNLQPEDFATYYCLQHWSYPLTFGSGTKLEVK
B8: G3A_VK3+VH3 (antibody, IgG1, V domains shown)
VH: EVQLVESGGGLVKPGGSLRLSCAASGFAFSTYDMSWVRQAPGKGLEWVATISSGGSYTYYADSVKGRFTISRDSAKNSLYLQMNSLRAEDTAVYYCAPTTVVPFAYWGQGTLVTVSA
VL: DIQMTQSPSSLSTSVGDRVTITCKASQNVRTVVAWYQQKPGKAPKTLIYLASNRHSGVPSRFSGSGSGTEFTLTISNLQPEDFATYYCLQHWSYPLTFGSGTKLEVK

Assays:
[1] = target: T1, Human GPA33 on GPA33+ colorectal cancer cell lines (Colo 205, LS 174T, SW 1222) (human, UniProt Q99795 22-319); assay: cell binding to LS174T Luc cells; IgG format
T1 construct: Endogenous GPA33 on human colorectal cancer cell lines; also called surface human GPA33; GPA33+ tumor cell lines
T1 sequence: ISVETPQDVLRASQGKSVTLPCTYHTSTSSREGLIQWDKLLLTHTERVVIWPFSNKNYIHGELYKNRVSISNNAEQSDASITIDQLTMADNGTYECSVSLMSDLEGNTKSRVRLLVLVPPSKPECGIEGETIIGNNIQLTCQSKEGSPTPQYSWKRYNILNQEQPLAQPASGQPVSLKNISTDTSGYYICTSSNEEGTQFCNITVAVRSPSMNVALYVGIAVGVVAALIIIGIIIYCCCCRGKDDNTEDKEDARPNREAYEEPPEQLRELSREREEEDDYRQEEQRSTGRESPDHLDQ

[2] = target: T2, Human GPA33 (recombinant protein, Novoprotein) (human, UniProt Q99795 22-235); assay: SPR (Biacore), binding to GPA33 protein; IgG format
T2 construct: Bought recombinant protein immobilized on a CM5 chip; also called GPA33 antigen; tumor antigen GPA33
T2 sequence: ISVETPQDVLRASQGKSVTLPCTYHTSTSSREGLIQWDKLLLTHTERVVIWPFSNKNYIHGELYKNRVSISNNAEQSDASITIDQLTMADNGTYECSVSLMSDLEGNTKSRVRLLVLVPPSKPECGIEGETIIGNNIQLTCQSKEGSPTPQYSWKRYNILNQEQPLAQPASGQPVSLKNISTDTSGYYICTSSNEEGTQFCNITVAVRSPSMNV
Method: SPR analysis. Human GPA33 (Novoprotein, Summit, NJ) was immobilized on CM5 chips. Five concentrations of 2-fold serially diluted huA33 IgG1 or huA33-BsAbs (starting at 20 nM) were flowed over the chip using a Biacore™ T100 system (GE Healthcare, Chicago, IL). Binding kinetics of huA33 were measured at 25° C. and binding kinetics of huA33-BsAbs were measured at both 25° C. and 37° C. The sensorgrams were fitted with two state binding model for both to derive kinetic parameters.

[3] = target: T1, Human GPA33 on GPA33+ colorectal cancer …; assay: cell binding to SW1222 Luc cells; IgG format

Binder | EC50 [1] [µg/mL] | Kd [2] [nM] | EC50 [3] [µg/mL]
B1 | 0.248 | 0.196 | 1
B2 | – | 1.74 | 1.07
B3 | 0.642 | 0.19 | 0.338
B4 | 0.424 | 0.238 | 0.387
B5 | 0.768 | 1.62 | –
B6 | 0.44 | 0.171 | 0.496
B7 | 0.279 | 0.236 | 1.03
B8 | 0.398 | 0.241 | 0.391
